Data on one molecule can be found in paper doi:10.1101/2021.04.12.439405 (bioRxiv, 2021).

In test [1] the target is T1, MukB^KRK (K1114E, R1122E and K1125E) (E. coli, UniProt P22523 1-1486, K1114E | R1122E | K1125E).
T1 sequence (looked up): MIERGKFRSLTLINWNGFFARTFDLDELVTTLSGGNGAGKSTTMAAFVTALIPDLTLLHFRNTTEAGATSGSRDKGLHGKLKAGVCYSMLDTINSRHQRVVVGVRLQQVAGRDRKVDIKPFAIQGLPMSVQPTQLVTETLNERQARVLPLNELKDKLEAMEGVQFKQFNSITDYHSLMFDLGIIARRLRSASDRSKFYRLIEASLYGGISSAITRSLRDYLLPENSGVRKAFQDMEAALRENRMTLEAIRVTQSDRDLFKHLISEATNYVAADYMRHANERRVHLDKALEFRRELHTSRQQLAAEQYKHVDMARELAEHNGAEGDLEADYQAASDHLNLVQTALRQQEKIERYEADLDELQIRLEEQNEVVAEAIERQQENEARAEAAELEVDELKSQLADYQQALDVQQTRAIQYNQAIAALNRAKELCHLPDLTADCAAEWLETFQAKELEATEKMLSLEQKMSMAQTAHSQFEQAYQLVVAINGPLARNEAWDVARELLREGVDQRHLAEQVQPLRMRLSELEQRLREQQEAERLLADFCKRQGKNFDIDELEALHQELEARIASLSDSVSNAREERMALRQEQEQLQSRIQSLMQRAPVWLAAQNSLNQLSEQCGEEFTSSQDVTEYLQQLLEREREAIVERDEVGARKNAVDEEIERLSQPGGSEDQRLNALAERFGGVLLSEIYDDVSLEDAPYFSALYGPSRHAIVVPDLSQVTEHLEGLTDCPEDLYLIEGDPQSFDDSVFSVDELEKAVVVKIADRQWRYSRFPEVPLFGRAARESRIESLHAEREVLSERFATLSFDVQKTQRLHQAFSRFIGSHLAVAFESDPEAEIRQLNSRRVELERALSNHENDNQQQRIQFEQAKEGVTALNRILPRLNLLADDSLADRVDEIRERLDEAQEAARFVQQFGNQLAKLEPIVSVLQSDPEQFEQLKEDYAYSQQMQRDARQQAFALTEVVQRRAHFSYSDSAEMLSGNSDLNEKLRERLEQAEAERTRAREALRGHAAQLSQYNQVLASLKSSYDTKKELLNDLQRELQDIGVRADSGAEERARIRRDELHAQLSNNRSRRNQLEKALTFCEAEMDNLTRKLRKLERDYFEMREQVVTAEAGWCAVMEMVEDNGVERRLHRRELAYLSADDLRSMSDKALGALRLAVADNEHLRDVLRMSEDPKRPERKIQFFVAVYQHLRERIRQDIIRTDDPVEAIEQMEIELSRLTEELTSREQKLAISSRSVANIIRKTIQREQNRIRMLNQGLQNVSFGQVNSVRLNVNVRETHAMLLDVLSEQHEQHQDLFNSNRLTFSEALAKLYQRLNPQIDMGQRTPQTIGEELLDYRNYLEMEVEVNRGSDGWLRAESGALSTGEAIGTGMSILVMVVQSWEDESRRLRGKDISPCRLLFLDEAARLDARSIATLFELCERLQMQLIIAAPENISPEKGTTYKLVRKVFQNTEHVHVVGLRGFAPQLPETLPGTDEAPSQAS
Nature of the test: native gel or EMSA. In general terms: Mobility shift assays separate free from complexed probe on a gel.

Test [2] deals with T2, MukB-His (wild type MukB) (E. coli, UniProt P22523 1-1486).
T2 sequence (looked up): T1 sequence (looked up) with E1114K, E1122R, E1125K
Nature of the test: native MS.

Where a chain is given by its changes, count along the chain named.

B1: His-MukF (natural protein, E. coli, UniProt P60293 1-440, looked up)
chain: MSEFSQTVPELVAWARKNDFSISLPVDRLSFLLAVATLNGERLDGEMSEGELVDAFRHVSDAFEQTSETIGVRANNAINDMVRQRLLNRFTSEQAEGNAIYRLTPLGIGITDYYIRQREFSTLRLSMQLSIVAGELKRAADAAEEGGDEFHWHRNVYAPLKYSVAEIFDSIDLTQRLMDEQQQQVKDDIAQLLNKDWRAAISSCELLLSETSGTLRELQDTLEAAGDKLQANLLRIQDATMTHDDLHFVDRLVFDLQSKLDRIISWGQQSIDLWIGYDRHVHKFIRTAIDMDKNRVFAQRLRQSVQTYFDEPWALTYANADRLLDMRDEEMALRDEEVTGELPEDLEYEEFNEIREQLAAIIEEQLAVYKTRQVPLDLGLVVREYLSQYPRARHFDVARIVIDQAVRLGVAQADFTGLPAKWQPINDYGAKVQAHVIDKY
Consider B1, for which the binding result in test [1] and in test [2] was “binds” throughout.
